Data as given in patent US20160272693A1 (ZEALAND PHARMA A S, published 2016).
*1 amine or outer side, *2 acyl side, *3 side chain or, on linkers, in order; H or OH if unused. Bridges are numbered along the chain shown (N, C = ends). [ ]: non-standard residue; d: D form. The star is where a group is joined. C20 diacid = O=C(O)CCCCCCCCCCCCCCCCCCC(=O)*; γGlu = O=C(O)[C@H](CCC(=O)[*:2])N[*:1]; Hyp = O=C(O)[C@@H]1C[C@@H](O)CN1; NMeI = CC[C@H](C)[C@H](NC)C(=O)O; Aad = N[C@@H](CCCC(=O)O)C(=O)O; Orn = NCCC[C@H](N)C(=O)O; Sar = CNCC(=O)O

T1: human amylin receptor 3 (hAMYR3), hCTR2 co-expressed with human receptor activity modifying protein 3 (hRAMP3) (human, UniProt P30988 25-474; O60896 24-148)
T1 sequence (looked up) 1: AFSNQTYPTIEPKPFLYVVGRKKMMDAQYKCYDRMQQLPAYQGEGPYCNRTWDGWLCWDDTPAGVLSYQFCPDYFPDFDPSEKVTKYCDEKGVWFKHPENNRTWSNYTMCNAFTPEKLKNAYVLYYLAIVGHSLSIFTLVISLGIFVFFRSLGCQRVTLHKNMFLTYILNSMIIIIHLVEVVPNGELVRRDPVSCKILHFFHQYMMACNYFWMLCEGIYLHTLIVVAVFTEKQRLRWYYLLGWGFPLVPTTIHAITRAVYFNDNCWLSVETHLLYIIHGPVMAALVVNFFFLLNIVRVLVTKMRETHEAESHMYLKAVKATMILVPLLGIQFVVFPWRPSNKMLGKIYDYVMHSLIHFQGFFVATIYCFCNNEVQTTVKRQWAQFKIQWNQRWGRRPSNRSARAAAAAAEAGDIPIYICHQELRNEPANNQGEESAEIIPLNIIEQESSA
T1 sequence (looked up) 2: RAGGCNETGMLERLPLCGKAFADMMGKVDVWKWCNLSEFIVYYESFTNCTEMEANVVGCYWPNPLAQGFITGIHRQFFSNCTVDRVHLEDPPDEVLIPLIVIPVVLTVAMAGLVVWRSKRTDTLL

B1: [19CD]-isoGlu-R-C( )-NTAT-C( )-ATQRLADFLHRSSF-Gly(Me)-A-Ile(Me)-LSSTEVGSETP-NH2 (Compd. 1) (peptide)
peptide: {C20 diacid-γGlu}-RCNTATCATQRLADFLHRSSF[Sar]A[NMeI]LSSTEVGSETP-NH2
modifications: disulfide 2-7
SMILES: CC[C@H](C)[C@@H](C(=O)N[C@@H](CC(C)C)C(=O)N[C@@H](CO)C(=O)N[C@@H](CO)C(=O)N[C@H](C(=O)N[C@@H](CCC(=O)O)C(=O)N[C@H](C(=O)NCC(=O)N[C@@H](CO)C(=O)N[C@@H](CCC(=O)O)C(=O)N[C@H](C(=O)N1CCC[C@H]1C(N)=O)[C@@H](C)O)C(C)C)[C@@H](C)O)N(C)C(=O)[C@H](C)NC(=O)CN(C)C(=O)[C@H](Cc1ccccc1)NC(=O)[C@H](CO)NC(=O)[C@H](CO)NC(=O)[C@H](CCCNC(=N)N)NC(=O)[C@H](Cc1c[nH]cn1)NC(=O)[C@H](CC(C)C)NC(=O)[C@H](Cc1ccccc1)NC(=O)[C@H](CC(=O)O)NC(=O)[C@H](C)NC(=O)[C@H](CC(C)C)NC(=O)[C@H](CCCNC(=N)N)NC(=O)[C@H](CCC(N)=O)NC(=O)[C@@H](NC(=O)[C@H](C)NC(=O)[C@@H]1CSSC[C@H](NC(=O)[C@H](CCCNC(=N)N)NC(=O)CC[C@H](NC(=O)CCCCCCCCCCCCCCCCCCC(=O)O)C(=O)O)C(=O)N[C@@H](CC(N)=O)C(=O)N[C@@H]([C@@H](C)O)C(=O)N[C@@H](C)C(=O)N[C@@H]([C@@H](C)O)C(=O)N1)[C@@H](C)O
B2: [19CD]-isoGlu-R-C( )-GTAT-C( )-ATERLAHFLTRSSF-Gly(Me)-A-Ile(Me)-LSSTEVGS-Orn-T-Hyp-NH2 (Compd. 11) (peptide)
peptide: {C20 diacid}-[γGlu]RCGTATCATERLAHFLTRSSF[Sar]A[NMeI]LSSTEVGS[Orn]T[Hyp]-NH2
modifications: disulfide 3-8
SMILES: CC[C@H](C)[C@@H](C(=O)N[C@@H](CC(C)C)C(=O)N[C@@H](CO)C(=O)N[C@@H](CO)C(=O)N[C@H](C(=O)N[C@@H](CCC(=O)O)C(=O)N[C@H](C(=O)NCC(=O)N[C@@H](CO)C(=O)N[C@@H](CCCN)C(=O)N[C@H](C(=O)N1C[C@H](O)C[C@H]1C(N)=O)[C@@H](C)O)C(C)C)[C@@H](C)O)N(C)C(=O)[C@H](C)NC(=O)CN(C)C(=O)[C@H](Cc1ccccc1)NC(=O)[C@H](CO)NC(=O)[C@H](CO)NC(=O)[C@H](CCCNC(=N)N)NC(=O)[C@@H](NC(=O)[C@H](CC(C)C)NC(=O)[C@H](Cc1ccccc1)NC(=O)[C@H](Cc1c[nH]cn1)NC(=O)[C@H](C)NC(=O)[C@H](CC(C)C)NC(=O)[C@H](CCCNC(=N)N)NC(=O)[C@H](CCC(=O)O)NC(=O)[C@@H](NC(=O)[C@H](C)NC(=O)[C@@H]1CSSC[C@H](NC(=O)[C@H](CCCNC(=N)N)NC(=O)CC[C@H](NC(=O)CCCCCCCCCCCCCCCCCCC(=O)O)C(=O)O)C(=O)NCC(=O)N[C@@H]([C@@H](C)O)C(=O)N[C@@H](C)C(=O)N[C@@H]([C@@H](C)O)C(=O)N1)[C@@H](C)O)[C@@H](C)O
B3: [19CD]-isoGlu-R-C( )-GTAT-C( )-ATERLAHFLTRSSF-Gly(Me)-A-Ile(Me)-LSSTEVGSFT-Hyp-NH2 (Compd. 10) (peptide)
peptide: {C20 diacid}-[γGlu]RCGTATCATERLAHFLTRSSF[Sar]A[NMeI]LSSTEVGSFT[Hyp]-NH2
modifications: disulfide 3-8
SMILES: CC[C@H](C)[C@@H](C(=O)N[C@@H](CC(C)C)C(=O)N[C@@H](CO)C(=O)N[C@@H](CO)C(=O)N[C@H](C(=O)N[C@@H](CCC(=O)O)C(=O)N[C@H](C(=O)NCC(=O)N[C@@H](CO)C(=O)N[C@@H](Cc1ccccc1)C(=O)N[C@H](C(=O)N1C[C@H](O)C[C@H]1C(N)=O)[C@@H](C)O)C(C)C)[C@@H](C)O)N(C)C(=O)[C@H](C)NC(=O)CN(C)C(=O)[C@H](Cc1ccccc1)NC(=O)[C@H](CO)NC(=O)[C@H](CO)NC(=O)[C@H](CCCNC(=N)N)NC(=O)[C@@H](NC(=O)[C@H](CC(C)C)NC(=O)[C@H](Cc1ccccc1)NC(=O)[C@H](Cc1c[nH]cn1)NC(=O)[C@H](C)NC(=O)[C@H](CC(C)C)NC(=O)[C@H](CCCNC(=N)N)NC(=O)[C@H](CCC(=O)O)NC(=O)[C@@H](NC(=O)[C@H](C)NC(=O)[C@@H]1CSSC[C@H](NC(=O)[C@H](CCCNC(=N)N)NC(=O)CC[C@H](NC(=O)CCCCCCCCCCCCCCCCCCC(=O)O)C(=O)O)C(=O)NCC(=O)N[C@@H]([C@@H](C)O)C(=O)N[C@@H](C)C(=O)N[C@@H]([C@@H](C)O)C(=O)N1)[C@@H](C)O)[C@@H](C)O
B4: [19CD]-isoGlu-R-C( )-NTAT-C( )-ATQRLAHFLHRF-Gly(Me)-A-Ile(Me)-LSSTEVGSETP-NH2 (Compd. 14) (peptide)
peptide: {C20 diacid-γGlu}-RCNTATCATQRLAHFLHRF[Sar]A[NMeI]LSSTEVGSETP-NH2
modifications: disulfide 2-7
SMILES: CC[C@H](C)[C@@H](C(=O)N[C@@H](CC(C)C)C(=O)N[C@@H](CO)C(=O)N[C@@H](CO)C(=O)N[C@H](C(=O)N[C@@H](CCC(=O)O)C(=O)N[C@H](C(=O)NCC(=O)N[C@@H](CO)C(=O)N[C@@H](CCC(=O)O)C(=O)N[C@H](C(=O)N1CCC[C@H]1C(N)=O)[C@@H](C)O)C(C)C)[C@@H](C)O)N(C)C(=O)[C@H](C)NC(=O)CN(C)C(=O)[C@H](Cc1ccccc1)NC(=O)[C@H](CCCNC(=N)N)NC(=O)[C@H](Cc1c[nH]cn1)NC(=O)[C@H](CC(C)C)NC(=O)[C@H](Cc1ccccc1)NC(=O)[C@H](Cc1c[nH]cn1)NC(=O)[C@H](C)NC(=O)[C@H](CC(C)C)NC(=O)[C@H](CCCNC(=N)N)NC(=O)[C@H](CCC(N)=O)NC(=O)[C@@H](NC(=O)[C@H](C)NC(=O)[C@@H]1CSSC[C@H](NC(=O)[C@H](CCCNC(=N)N)NC(=O)CC[C@H](NC(=O)CCCCCCCCCCCCCCCCCCC(=O)O)C(=O)O)C(=O)N[C@@H](CC(N)=O)C(=O)N[C@@H]([C@@H](C)O)C(=O)N[C@@H](C)C(=O)N[C@@H]([C@@H](C)O)C(=O)N1)[C@@H](C)O
B5: [19CD]-isoGlu-R-C( )-GTAT-C( )-ATERLAHFLTRSSF-Gly(Me)-A-Ile(Me)-LSSTEVGSGT-Hyp-NH2 (Compd. 13) (peptide)
peptide: {C20 diacid}-[γGlu]RCGTATCATERLAHFLTRSSF[Sar]A[NMeI]LSSTEVGSGT[Hyp]-NH2
modifications: disulfide 3-8
SMILES: CC[C@H](C)[C@@H](C(=O)N[C@@H](CC(C)C)C(=O)N[C@@H](CO)C(=O)N[C@@H](CO)C(=O)N[C@H](C(=O)N[C@@H](CCC(=O)O)C(=O)N[C@H](C(=O)NCC(=O)N[C@@H](CO)C(=O)NCC(=O)N[C@H](C(=O)N1C[C@H](O)C[C@H]1C(N)=O)[C@@H](C)O)C(C)C)[C@@H](C)O)N(C)C(=O)[C@H](C)NC(=O)CN(C)C(=O)[C@H](Cc1ccccc1)NC(=O)[C@H](CO)NC(=O)[C@H](CO)NC(=O)[C@H](CCCNC(=N)N)NC(=O)[C@@H](NC(=O)[C@H](CC(C)C)NC(=O)[C@H](Cc1ccccc1)NC(=O)[C@H](Cc1c[nH]cn1)NC(=O)[C@H](C)NC(=O)[C@H](CC(C)C)NC(=O)[C@H](CCCNC(=N)N)NC(=O)[C@H](CCC(=O)O)NC(=O)[C@@H](NC(=O)[C@H](C)NC(=O)[C@@H]1CSSC[C@H](NC(=O)[C@H](CCCNC(=N)N)NC(=O)CC[C@H](NC(=O)CCCCCCCCCCCCCCCCCCC(=O)O)C(=O)O)C(=O)NCC(=O)N[C@@H]([C@@H](C)O)C(=O)N[C@@H](C)C(=O)N[C@@H]([C@@H](C)O)C(=O)N1)[C@@H](C)O)[C@@H](C)O
B6: [19CD]-isoGlu-R-C( )-GTAT-C( )-ATERLAHFLTRSSF-Gly(Me)-A-Ile(Me)-LSSTEVGS-Aad-T-Hyp-NH2 (Compd. 12) (peptide)
peptide: {C20 diacid}-[γGlu]RCGTATCATERLAHFLTRSSF[Sar]A[NMeI]LSSTEVGS[Aad]T[Hyp]-NH2
modifications: disulfide 3-8
SMILES: CC[C@H](C)[C@@H](C(=O)N[C@@H](CC(C)C)C(=O)N[C@@H](CO)C(=O)N[C@@H](CO)C(=O)N[C@H](C(=O)N[C@@H](CCC(=O)O)C(=O)N[C@H](C(=O)NCC(=O)N[C@@H](CO)C(=O)N[C@@H](CCCC(=O)O)C(=O)N[C@H](C(=O)N1C[C@H](O)C[C@H]1C(N)=O)[C@@H](C)O)C(C)C)[C@@H](C)O)N(C)C(=O)[C@H](C)NC(=O)CN(C)C(=O)[C@H](Cc1ccccc1)NC(=O)[C@H](CO)NC(=O)[C@H](CO)NC(=O)[C@H](CCCNC(=N)N)NC(=O)[C@@H](NC(=O)[C@H](CC(C)C)NC(=O)[C@H](Cc1ccccc1)NC(=O)[C@H](Cc1c[nH]cn1)NC(=O)[C@H](C)NC(=O)[C@H](CC(C)C)NC(=O)[C@H](CCCNC(=N)N)NC(=O)[C@H](CCC(=O)O)NC(=O)[C@@H](NC(=O)[C@H](C)NC(=O)[C@@H]1CSSC[C@H](NC(=O)[C@H](CCCNC(=N)N)NC(=O)CC[C@H](NC(=O)CCCCCCCCCCCCCCCCCCC(=O)O)C(=O)O)C(=O)NCC(=O)N[C@@H]([C@@H](C)O)C(=O)N[C@@H](C)C(=O)N[C@@H]([C@@H](C)O)C(=O)N1)[C@@H](C)O)[C@@H](C)O
B7: [19CD]-isoGlu-R-C( )-QTAT-C( )-ATERLAHFLQRF-Gly(Me)-A-Ile(Me)-LSSTEVGSNTP-NH2 (Compd. 96) (peptide)
peptide: {C20 diacid-γGlu}-RCQTATCATERLAHFLQRF[Sar]A[NMeI]LSSTEVGSNTP-NH2
modifications: disulfide 2-7
SMILES: CC[C@H](C)[C@@H](C(=O)N[C@@H](CC(C)C)C(=O)N[C@@H](CO)C(=O)N[C@@H](CO)C(=O)N[C@H](C(=O)N[C@@H](CCC(=O)O)C(=O)N[C@H](C(=O)NCC(=O)N[C@@H](CO)C(=O)N[C@@H](CC(N)=O)C(=O)N[C@H](C(=O)N1CCC[C@H]1C(N)=O)[C@@H](C)O)C(C)C)[C@@H](C)O)N(C)C(=O)[C@H](C)NC(=O)CN(C)C(=O)[C@H](Cc1ccccc1)NC(=O)[C@H](CCCNC(=N)N)NC(=O)[C@H](CCC(N)=O)NC(=O)[C@H](CC(C)C)NC(=O)[C@H](Cc1ccccc1)NC(=O)[C@H](Cc1c[nH]cn1)NC(=O)[C@H](C)NC(=O)[C@H](CC(C)C)NC(=O)[C@H](CCCNC(=N)N)NC(=O)[C@H](CCC(=O)O)NC(=O)[C@@H](NC(=O)[C@H](C)NC(=O)[C@@H]1CSSC[C@H](NC(=O)[C@H](CCCNC(=N)N)NC(=O)CC[C@H](NC(=O)CCCCCCCCCCCCCCCCCCC(=O)O)C(=O)O)C(=O)N[C@@H](CCC(N)=O)C(=O)N[C@@H]([C@@H](C)O)C(=O)N[C@@H](C)C(=O)N[C@@H]([C@@H](C)O)C(=O)N1)[C@@H](C)O

Target: T1, human amylin receptor 3 (hAMYR3), hCTR2 …
Assay: cell-based or functional assay

| Binder | hAMYR3 EC50 (nM); cAMP induction [nM] |
| --- | --- |
| B1 | 0.23 |
| B2 | 0.2 |
| B3 | 0.35 |
| B4 | 0.26 |
| B5 | 0.38 |
| B6 | 0.25 |
| B7 | 0.28 |
